# In paper PMC5589196 (Cell, 2016):
# T1: TFIIF (S. cerevisiae, UniProt P41895 1-735; P41896 1-400; P35189 1-244)
# T1 sequence (looked up) 1: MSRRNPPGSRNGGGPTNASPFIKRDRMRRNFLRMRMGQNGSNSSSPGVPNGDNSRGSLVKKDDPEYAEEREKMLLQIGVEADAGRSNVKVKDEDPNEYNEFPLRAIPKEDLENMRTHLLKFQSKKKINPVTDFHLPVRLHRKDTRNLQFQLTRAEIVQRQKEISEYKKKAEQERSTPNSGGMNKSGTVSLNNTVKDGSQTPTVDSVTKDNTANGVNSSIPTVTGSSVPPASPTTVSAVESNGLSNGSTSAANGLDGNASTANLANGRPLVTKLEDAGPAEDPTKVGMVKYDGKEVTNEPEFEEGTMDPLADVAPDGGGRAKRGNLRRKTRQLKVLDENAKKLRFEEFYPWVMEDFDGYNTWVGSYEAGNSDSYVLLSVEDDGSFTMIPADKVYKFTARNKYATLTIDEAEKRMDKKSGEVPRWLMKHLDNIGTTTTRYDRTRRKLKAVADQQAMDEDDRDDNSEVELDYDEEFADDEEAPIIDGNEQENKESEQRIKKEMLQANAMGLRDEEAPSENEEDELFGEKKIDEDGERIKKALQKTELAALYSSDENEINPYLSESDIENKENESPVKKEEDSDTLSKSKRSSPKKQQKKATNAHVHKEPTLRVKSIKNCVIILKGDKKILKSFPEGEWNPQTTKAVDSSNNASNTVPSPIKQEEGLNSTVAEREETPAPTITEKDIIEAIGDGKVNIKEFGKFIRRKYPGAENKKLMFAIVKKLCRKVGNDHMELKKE
# T1 sequence (looked up) 2: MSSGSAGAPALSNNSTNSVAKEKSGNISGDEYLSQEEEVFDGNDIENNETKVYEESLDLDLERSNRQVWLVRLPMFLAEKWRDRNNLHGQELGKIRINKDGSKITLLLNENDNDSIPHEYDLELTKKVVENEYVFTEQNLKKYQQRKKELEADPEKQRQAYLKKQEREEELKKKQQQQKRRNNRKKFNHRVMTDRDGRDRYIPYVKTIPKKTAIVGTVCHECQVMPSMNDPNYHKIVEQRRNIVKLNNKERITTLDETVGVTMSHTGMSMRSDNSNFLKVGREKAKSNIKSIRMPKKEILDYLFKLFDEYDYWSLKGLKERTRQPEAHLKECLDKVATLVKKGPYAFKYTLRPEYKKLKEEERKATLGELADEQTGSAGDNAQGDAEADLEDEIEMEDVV
# T1 sequence (looked up) 3: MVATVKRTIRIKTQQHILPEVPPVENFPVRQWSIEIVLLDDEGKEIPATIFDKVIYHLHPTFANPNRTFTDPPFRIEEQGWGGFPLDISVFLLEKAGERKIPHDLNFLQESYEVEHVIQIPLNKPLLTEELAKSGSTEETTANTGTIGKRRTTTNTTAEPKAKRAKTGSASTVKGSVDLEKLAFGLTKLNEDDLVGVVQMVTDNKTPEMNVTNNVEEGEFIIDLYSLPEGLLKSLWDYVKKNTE
# T2: Rad3 (S. cerevisiae, UniProt P06839 1-778)
# T2 sequence (looked up): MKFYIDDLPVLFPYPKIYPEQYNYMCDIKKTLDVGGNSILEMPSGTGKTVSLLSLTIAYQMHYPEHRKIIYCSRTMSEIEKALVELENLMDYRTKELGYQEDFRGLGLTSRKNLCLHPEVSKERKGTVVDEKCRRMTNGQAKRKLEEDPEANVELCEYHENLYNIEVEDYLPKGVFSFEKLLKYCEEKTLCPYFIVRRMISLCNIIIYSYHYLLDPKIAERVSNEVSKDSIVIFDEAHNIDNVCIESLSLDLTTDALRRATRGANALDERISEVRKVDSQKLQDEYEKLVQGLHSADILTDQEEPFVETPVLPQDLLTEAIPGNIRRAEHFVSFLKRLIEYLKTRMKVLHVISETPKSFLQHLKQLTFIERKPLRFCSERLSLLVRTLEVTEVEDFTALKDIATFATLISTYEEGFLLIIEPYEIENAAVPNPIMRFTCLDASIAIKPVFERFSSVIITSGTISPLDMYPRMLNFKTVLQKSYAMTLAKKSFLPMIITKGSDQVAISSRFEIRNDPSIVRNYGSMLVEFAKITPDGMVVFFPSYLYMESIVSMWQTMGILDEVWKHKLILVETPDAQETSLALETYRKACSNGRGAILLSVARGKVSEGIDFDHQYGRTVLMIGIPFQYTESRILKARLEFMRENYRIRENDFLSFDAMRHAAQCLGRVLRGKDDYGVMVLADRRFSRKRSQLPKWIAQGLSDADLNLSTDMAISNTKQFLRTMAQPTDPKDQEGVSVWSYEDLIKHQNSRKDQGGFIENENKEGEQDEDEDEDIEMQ
# T3: Med5 (S. cerevisiae, UniProt P53114 1-1132)
# T3 sequence (looked up): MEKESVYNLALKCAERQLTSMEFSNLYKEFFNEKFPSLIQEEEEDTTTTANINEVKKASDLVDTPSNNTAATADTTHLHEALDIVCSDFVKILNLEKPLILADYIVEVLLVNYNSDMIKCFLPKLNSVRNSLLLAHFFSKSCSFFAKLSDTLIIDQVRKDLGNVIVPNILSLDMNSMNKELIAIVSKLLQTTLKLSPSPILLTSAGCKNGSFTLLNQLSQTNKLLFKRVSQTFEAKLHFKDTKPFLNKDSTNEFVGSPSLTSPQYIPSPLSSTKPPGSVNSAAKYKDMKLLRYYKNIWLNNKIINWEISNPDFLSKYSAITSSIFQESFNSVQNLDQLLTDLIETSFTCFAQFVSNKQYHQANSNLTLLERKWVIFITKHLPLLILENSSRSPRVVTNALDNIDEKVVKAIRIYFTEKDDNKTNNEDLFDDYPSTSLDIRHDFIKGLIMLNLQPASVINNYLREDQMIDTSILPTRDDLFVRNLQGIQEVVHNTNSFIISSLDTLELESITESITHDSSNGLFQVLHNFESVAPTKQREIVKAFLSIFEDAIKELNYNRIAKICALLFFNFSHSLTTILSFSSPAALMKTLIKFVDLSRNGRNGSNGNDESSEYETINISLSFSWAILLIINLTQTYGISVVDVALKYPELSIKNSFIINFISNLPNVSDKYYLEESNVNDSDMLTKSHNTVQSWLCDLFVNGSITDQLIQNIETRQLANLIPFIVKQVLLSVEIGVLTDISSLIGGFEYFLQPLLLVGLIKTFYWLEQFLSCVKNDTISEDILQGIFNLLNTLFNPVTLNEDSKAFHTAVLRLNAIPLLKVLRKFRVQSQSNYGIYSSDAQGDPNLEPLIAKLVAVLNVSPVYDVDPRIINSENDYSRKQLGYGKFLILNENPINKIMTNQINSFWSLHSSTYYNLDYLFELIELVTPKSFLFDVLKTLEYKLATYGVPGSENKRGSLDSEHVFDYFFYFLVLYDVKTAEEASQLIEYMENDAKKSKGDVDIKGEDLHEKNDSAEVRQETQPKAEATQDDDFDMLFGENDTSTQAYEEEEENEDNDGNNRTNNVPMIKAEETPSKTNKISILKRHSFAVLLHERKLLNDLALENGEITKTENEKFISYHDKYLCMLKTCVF
# T4: Tfg1 (S. cerevisiae, UniProt P41895 1-735)
# T4 sequence (looked up): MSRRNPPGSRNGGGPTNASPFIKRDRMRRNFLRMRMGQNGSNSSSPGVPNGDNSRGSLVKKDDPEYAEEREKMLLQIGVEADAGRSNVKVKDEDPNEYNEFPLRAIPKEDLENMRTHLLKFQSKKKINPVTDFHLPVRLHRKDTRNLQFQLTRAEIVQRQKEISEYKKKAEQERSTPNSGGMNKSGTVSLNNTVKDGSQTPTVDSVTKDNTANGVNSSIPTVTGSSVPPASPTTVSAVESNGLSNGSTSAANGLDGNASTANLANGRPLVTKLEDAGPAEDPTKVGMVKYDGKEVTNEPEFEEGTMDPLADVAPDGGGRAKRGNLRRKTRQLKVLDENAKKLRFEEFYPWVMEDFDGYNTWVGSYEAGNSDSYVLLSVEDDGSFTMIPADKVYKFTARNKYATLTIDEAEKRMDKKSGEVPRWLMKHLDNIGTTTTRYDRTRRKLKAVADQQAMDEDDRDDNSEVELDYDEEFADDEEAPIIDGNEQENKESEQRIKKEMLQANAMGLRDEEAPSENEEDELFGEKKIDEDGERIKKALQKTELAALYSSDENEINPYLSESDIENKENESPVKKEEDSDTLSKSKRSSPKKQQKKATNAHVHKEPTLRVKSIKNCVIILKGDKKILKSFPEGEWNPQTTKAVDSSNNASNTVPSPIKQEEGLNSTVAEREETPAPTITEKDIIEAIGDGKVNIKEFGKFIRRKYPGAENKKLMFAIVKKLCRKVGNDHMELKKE
# B1: Tfg3 (natural protein, S. cerevisiae, UniProt P35189 1-244, looked up)
# chain: MVATVKRTIRIKTQQHILPEVPPVENFPVRQWSIEIVLLDDEGKEIPATIFDKVIYHLHPTFANPNRTFTDPPFRIEEQGWGGFPLDISVFLLEKAGERKIPHDLNFLQESYEVEHVIQIPLNKPLLTEELAKSGSTEETTANTGTIGKRRTTTNTTAEPKAKRAKTGSASTVKGSVDLEKLAFGLTKLNEDDLVGVVQMVTDNKTPEMNVTNNVEEGEFIIDLYSLPEGLLKSLWDYVKKNTE
# How the values were obtained:
# TFIIF = target: T1, TFIIF; experiment: cross-linking
# Rad3 = target: T2, Rad3; experiment: cross-linking
# Med5 = target: T3, Med5; experiment: cross-linking
# Tfg1 = target: T4, Tfg1; experiment: cross-linking + cryo-EM structure
# Tfg3 = target: B1; experiment: cross-linking + cryo-EM structure
binder,measurement,setting,value
"TFIIE (complex, S. cerevisiae) chain 1: MDRPIDDIVKNLLKFVVRGFYGGSFVLVLDAILFHSVLAEDDLKQLLSINKTELGPLIARLRSDRLISIHKQREYPPNSKSVERVYYYVKYPHAIDAIKWKVHQVVQRLKDDLDKNSEPNGYMCPICLTKYTQLEAVQLLNFDRTEFLCSLCDEPLVEDDSGKKNKEKQDKLNRLMDQIQPIIDSLKKIDDSRIEENTFEIALARLIPPQNQSHAAYTYNPKKGSTMFRPGDSAPLPNLMGTALGNDSSRRAGANSQATLHINITTASDEVAQRELQERQAEEKRKQNAVPEWHKQSTIGKTALGRLDNEEEFDPVVTASAMDSINPDNEPAQETSYQNNRTLTEQEMEERENEKTLNDYYAALAKKQAKLNKEEEEEEEEEEDEEEEEEEEMEDVMDDNDETARENALEDEFEDVTDTAGTAKTESNTSNDVKQESINDKTEDAVNATATASGPSANAKPNDGDDDDDDDDDEMDIEFEDV chain 2: MSKNRDPLLANLNAFKSKVKSAPVIAPAKVGQKKTNDTVITIDGNTRKRTASERAQENTLNSAKNPVLVDIKKEAGSNSSNAISLDDDDDDEDFGSSPSKKVRPGSIAAAALQANQTDISKSHDSSKLLWATEYIQKKGKPVLVNELLDYLSMKKDDKVIELLKKLDRIEFDPKKGTFKYLSTYDVHSPSELLKLLRSQVTFKGISCKDLKDGWPQCDETINQLEEDSKILVLRTKKDKTPRYVWYNSGGNLKCIDEEFVKMWENVQLPQFAELPRKLQDLGLKPASVDPATIKRQTKRVEVKKKRQRKGKITNTHMTGILKDYSHRV",binding result,TFIIF,binds
"Tfb3 (natural protein, S. cerevisiae, UniProt Q03290 1-321, looked up) MLMDEYEENKDMCPICKTDRYLSPDVKFLVNPECYHRICESCVDRIFSLGPAQCPYKGCDKILRKNKFKTQIFDDVEVEKEVDIRKRVFNVFNKTIDDFNGDLVEYNKYLEEVEDIIYKLDHGIDVAKTEEKLRTYEELNKQLIMNNLERSRTEIESFEQRQKFEKEMKLKKRLLERQIEEEERMNKEWTKKEIVNRLSTTTQDINETIEGVKNTVKLKKSSARRKLEELNRVLKNNPYFNSNVNVQNSRLKDAVPFTPFNGDREAHPRFTLKGSVYNDPFIKDLEHRKEFIASGFNTNYAYERVLTEAFMGLGCVISEEL",binding result,Rad3,binds
"Med1 (natural protein, S. cerevisiae, UniProt Q12321 1-566, looked up) MVEGDSYVETLDSMIELFKDYKPGSITLENITRLCQTLGLESFTEELSNELSRLSTASKIIVIDVDYNKKQDRIQDVKLVLASNFDNFDYFNQRDGEHEKSNILLNSLTKYPDLKAFHNNLKFLYLLDAYSHIESDSTSHNNGSSDKSLDSSNASFNNQGKLDLFKYFTELSHYIRQCFQDNCCDFKVRTNLNDKFGIYILTQGINGKEVPLAKIYLEENKSDSQYRFYEYIYSQETKSWINESAENFSNGISLVMEIVANAKESNYTDLIWFPEDFISPELIIDKVTCSSNSSSSPPIIDLFSNNNYNSRIQLMNDFTTKLINIKKFDISNDNLDLISEILKWVQWSRIVLQNVFKLVSTPSSNSNSSELEPDYQAPFSTSTKDKNSSTSNTEPIPRSNRHGSVVEASRRRRSSTNKSKRPSITEAMMLKEEGLQQFNLHEILSEPAIEEENGDSIKEHSTTMDGANDLGFTASVSNQENAGTDIVMEDHGVLQGTSQNYGTATADDADIEMKDVSSKPSKPESSVLQLIVSEDHIILDTISECNLYDDVKCWSKFIEKFQDIVS",binding result,Med5,binds
B1,binding result,Tfg1,binds
"Rpb9 (natural protein, S. cerevisiae, UniProt P27999 1-122, looked up) MTTFRFCRDCNNMLYPREDKENNRLLFECRTCSYVEEAGSPLVYRHELITNIGETAGVVQDIGSDPTLPRSDRECPKCHSRENVFFQSQQRRKDTSMVLFFVCLSCSHIFTSDQKNKRTQFS",binding result,Tfg3,binds
